The target in the test is photosynthetic reaction center from Rhodobacter sphaeroides, native (strain R26) (Rhodobacter sphaeroides) (UniProt P0C0Y8). Put plainly: flash absorption spectroscopy.

“cytochrome c2 from Rhodobacter sphaeroides (from UniProt P0C0X8 1-124) (natural protein)” showed a dH of 54 meV.

(Values after paper PMC2615004.)
